Experiment [1] addresses full length recombinant PEAK3 (PEAK3^FL) from insect cells (human) (UniProt Q6ZS72). Description: SEC-MALS. Background: SEC sorts molecules by how far they enter the pores of the column.
In experiment [2] the target is PEAK3^tandem-pS69 peptide pre-complexed with 14-3-3ɣ (human). Put plainly: ITC. (In ITC the heat of successive injections is recorded.)
Experiment [3] addresses PEAK3^tandem-pS69 phosphopeptide (residues 54-74) (human). Put plainly: ITC.
Experiment [4] addresses PEAK2^IDR1 (N-terminally truncated PEAK2, residues 802-1406) (human) (UniProt Q86YV5). Put plainly: SEC-MALS.

Sequence of CrkII NSH3 domain (CrkII^NSH3) (P46108 134-191): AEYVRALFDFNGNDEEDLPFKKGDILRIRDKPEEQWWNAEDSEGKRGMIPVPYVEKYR
Sequence of full length recombinant PEAK3 (PEAK3^FL) from insect cells (human) (Q6ZS72 whole entry): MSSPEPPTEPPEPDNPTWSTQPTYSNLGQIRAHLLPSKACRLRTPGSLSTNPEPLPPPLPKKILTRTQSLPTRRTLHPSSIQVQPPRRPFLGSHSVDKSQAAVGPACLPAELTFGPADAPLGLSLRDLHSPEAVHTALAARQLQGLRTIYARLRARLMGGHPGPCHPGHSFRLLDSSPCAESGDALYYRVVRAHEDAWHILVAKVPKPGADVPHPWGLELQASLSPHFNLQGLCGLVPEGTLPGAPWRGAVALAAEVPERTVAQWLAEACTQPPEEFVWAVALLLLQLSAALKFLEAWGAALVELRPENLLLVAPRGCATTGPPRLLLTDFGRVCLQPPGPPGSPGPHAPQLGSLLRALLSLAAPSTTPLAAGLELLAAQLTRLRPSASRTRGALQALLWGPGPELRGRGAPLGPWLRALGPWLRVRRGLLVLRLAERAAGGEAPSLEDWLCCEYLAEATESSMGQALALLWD
Sequence of PEAK2^IDR1 (N-terminally truncated PEAK2, residues 802-1406) (human) (Q86YV5 802-1406): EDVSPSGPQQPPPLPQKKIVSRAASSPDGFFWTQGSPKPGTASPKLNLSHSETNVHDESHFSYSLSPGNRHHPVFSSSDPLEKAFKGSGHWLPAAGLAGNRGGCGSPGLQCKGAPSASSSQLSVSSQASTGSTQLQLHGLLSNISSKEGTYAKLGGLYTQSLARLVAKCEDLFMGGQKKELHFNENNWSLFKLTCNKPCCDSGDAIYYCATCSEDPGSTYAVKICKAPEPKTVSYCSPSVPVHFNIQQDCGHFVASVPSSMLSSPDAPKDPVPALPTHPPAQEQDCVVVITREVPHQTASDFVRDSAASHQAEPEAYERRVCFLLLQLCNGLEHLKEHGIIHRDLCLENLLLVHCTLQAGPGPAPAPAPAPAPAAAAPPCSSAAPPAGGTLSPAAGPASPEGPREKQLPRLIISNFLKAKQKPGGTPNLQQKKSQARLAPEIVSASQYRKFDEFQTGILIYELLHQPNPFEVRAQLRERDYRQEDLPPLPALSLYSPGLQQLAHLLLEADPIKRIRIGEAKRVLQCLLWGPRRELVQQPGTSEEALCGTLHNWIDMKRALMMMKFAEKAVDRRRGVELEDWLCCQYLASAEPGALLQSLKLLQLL

For the substance “insect cell derived 14-3-3ε,ζ heterodimer (complex)”, the stoichiometry N (ratio (dimer:dimer)) in experiment [1] was 1.
One may read the Kd as a measure of binding affinity in units of concentration. As to “CrkII NSH3 domain (CrkII^NSH3) (from UniProt P46108-1 134-191) (domain or fragment)”, the Kd in experiment [2] is 3600 nM.
human 14-3-3γ (natural protein) registered a Kd in experiment [3] of 130 nM.
A word on the stoichiometry N: it is the number of molecules, sites or subunits per partner or assembly. As to “full length CrkII, dimer (CrkII^FL dimer) (from UniProt P46108-1 1-304) (natural protein)”, the stoichiometry N in experiment [4] is 1 ratio (2:2).

Values taken from doi:10.1101/2022.09.01.506260.
